This passage reports β-galactosidase activity results from PMC1253830.

Holding throughout (assay): two-hybrid
Test [1] addresses pGBKT7-CcLim15 (Coprinus cinereus Lim15/Dmc1, residues 1-345, fused to the GAL4 DNA-binding domain) (Coprinus cinereus).
Test [2] deals with pGBKT7-CcLim15NT 1-104 (Coprinus cinereus).
Test [3] has as its target pGBKT7-CcLim15CT 104-345 (Coprinus cinereus).

As to “pGADT7-CcTopIINT 1-750 (domain or fragment)”, in test [1], the β-galactosidase activity was less than 1. “pGADT7-CcTopIIMD 751-1065 (domain or fragment)” gave a β-galactosidase activity in test [1] of less than 1. “pGADT7-CcTopIICT 1066-1569 (domain or fragment)”: the β-galactosidase activity in test [2] was less than 1; in test [3], 3.49; in test [1], 16.5.
